From US20200165334A1 (FRAUNHOFER GESELLSCHAFT ZUR F RDERUNG DER ANGEWANDTEN …, published 2020) come the findings set out here.

This assay has as its target T1, murine IL-38 (mouse, UniProt Q8R459 1-152, limits assumed, C-terminally-biotinylated form).
T1 construct: Bacterially expressed in a C-terminally-biotinylated form and used as the antigen for phage selection; also called mouse IL-38; IL1F10
T1 sequence (looked up): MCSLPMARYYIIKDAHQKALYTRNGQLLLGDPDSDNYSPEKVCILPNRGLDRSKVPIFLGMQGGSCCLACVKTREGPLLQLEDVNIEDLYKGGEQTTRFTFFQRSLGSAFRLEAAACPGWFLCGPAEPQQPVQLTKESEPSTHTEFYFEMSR
Description: biolayer interferometry, fitted sensorgrams (association to about 600 s, dissociation to 1800 s); concentrations of the traces not given.

B1: Fab H06 (Fab, V domains shown)
VH: EVQLVESGGGLVQPGGSLRLSCAASGFSLSYSYIHWVRQAPGKGLEWVASISPSYSYTSYADSVKGRFTISADTSKNTAYLQMNSLRAEDTAVYYCARAPVPHVWPYSGFDYWGQGTLVTVSS
VL: DIQMTQSPSSLSASVGDRVTITCRASQSVSSAVAWYQQKPGKAPKLLIYSASSLYSGVPSRFSGSRSGTDFTLTISSLQPEDFATYYCQQAYWSPITFGQGTKVEIK
notes: the constant domains of the Fab are not
B1 came in with a dissociation constant (Kd) of 69 nM. This lies in the double-digit nanomolar range.

B2: Fab E04 (Fab, V domains shown)
VH: EVQLVESGGGLVQPGGSLRLSCAASGFSFSSSSIHWVRQAPGKGLEWVASISPYYSYTSYADSVKGRFTISADTSKNTAYLQMNSLRAEDTAVYYCARTVRGSKKPYFSGWAMDYWGQGTLVTVSS
VL: DIQMTQSPSSLSASVGDRVTITCRASQSYYSYVAWYQQKPGKAPKLLIYSASSLYSGVPSRFSGSRSGTDFTLTISSLQPEDFATYYCQQVFAPITFGQGTKVEIK
notes: as for B1
In turn, B2 returned a dissociation constant (Kd) of 6.7 nM.
